Biological target: T1, recombinant AAV2 virus-like particles (VLPs) of capsid proteins VP1, VP2 and VP3 (AAV2, UniProt P03135 1-735; P03135 139-735; P03135 203-735)
T1 construct: also called AAV2 VLP; antigen
Experiment: indirect ELISA, plate coated with 1 ug/mL AAV2 VLP, 3-fold antibody dilutions from 1 ug/mL

T1 sequence (P03135 whole entry, chain 1 of 3): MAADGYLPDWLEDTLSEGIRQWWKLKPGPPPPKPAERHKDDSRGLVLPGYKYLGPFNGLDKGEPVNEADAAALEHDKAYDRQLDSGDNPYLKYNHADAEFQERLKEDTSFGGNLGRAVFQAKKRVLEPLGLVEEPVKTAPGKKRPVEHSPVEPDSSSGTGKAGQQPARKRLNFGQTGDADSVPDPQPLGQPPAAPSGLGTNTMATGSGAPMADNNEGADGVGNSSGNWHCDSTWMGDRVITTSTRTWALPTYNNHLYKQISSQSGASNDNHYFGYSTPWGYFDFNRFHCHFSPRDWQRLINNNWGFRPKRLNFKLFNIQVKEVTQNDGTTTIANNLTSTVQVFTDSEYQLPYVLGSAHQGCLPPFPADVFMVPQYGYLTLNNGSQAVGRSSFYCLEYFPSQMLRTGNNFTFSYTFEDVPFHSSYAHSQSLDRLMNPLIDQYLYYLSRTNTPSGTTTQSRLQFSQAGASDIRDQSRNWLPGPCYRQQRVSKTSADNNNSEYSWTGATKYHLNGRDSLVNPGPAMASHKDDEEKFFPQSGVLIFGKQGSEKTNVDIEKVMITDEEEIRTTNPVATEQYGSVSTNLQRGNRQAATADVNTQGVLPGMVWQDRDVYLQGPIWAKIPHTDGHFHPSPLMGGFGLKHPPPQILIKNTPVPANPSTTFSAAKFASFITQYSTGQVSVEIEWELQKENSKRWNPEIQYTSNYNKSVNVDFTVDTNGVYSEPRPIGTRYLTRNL
T1 sequence (P03135 139-735, tags left off, chain 2 of 3): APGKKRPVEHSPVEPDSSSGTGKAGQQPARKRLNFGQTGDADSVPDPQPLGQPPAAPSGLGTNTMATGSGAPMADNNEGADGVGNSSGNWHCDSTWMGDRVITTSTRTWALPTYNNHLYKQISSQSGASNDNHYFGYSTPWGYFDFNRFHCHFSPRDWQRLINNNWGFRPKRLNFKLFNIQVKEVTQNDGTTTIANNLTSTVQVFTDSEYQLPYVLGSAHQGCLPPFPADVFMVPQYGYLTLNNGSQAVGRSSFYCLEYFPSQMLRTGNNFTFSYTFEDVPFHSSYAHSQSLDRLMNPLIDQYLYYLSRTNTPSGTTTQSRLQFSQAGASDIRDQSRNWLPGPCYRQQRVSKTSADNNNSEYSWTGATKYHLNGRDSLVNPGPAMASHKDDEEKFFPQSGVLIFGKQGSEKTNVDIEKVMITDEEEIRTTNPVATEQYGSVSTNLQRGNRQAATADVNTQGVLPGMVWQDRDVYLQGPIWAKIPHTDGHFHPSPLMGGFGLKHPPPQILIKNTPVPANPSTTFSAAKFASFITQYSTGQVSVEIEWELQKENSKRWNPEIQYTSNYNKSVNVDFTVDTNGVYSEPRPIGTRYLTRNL
T1 sequence (P03135 203-735 limits assumed, chain 3 of 3): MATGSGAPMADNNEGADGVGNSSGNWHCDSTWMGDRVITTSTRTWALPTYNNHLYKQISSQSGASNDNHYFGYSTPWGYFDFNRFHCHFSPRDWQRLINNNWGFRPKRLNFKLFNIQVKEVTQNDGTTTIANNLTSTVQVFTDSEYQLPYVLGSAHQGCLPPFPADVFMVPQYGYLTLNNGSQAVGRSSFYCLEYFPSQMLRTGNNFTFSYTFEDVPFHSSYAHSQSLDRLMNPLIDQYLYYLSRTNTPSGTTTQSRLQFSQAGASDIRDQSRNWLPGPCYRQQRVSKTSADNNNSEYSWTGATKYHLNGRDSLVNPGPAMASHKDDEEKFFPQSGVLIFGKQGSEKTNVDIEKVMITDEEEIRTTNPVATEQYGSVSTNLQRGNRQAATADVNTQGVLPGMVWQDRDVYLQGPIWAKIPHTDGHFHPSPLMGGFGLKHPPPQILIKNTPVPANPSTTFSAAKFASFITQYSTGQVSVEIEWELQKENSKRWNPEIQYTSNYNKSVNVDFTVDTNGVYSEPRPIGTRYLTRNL

| Binder | EC50 [ng/mL] |
| --- | --- |
| 15G4-4 (antibody, V domains shown, Expressed recombinantly in ExpiCHO-S cells, purified on protein A as IgG and detected with anti-rabbit IgG (Fc-specific); also called anti-AAV2 rabbit monoclonal antibody 15G4-4; combination B) VH: QSVEESGGRLVTPGTPLTLTCTVSGFSLNSYTVNWVRQAPGKGLEWIGFISGGSGITNYATWAKGRFTISKTSTTVDLKLPSPTTEDTATYFCARGRYPGYGGDDYEDYYFNLWGQGTLVTVSS VL: DVVMTQTQASVSAAVGGTVTIKCQASESIGSYLAWYQQKPGQPPRLLIYQASTLASGVSSRFKGSGSGTQFTLTISDLECDDAATYYCQGEFSCDGAHCNAFGGGTEVVVK | 1.77 |
| 19E10-3 (antibody, V domains shown, Expressed recombinantly in ExpiCHO-S cells, purified on protein A as IgG and detected with anti-rabbit IgG (Fc-specific); also called anti-AAV2 rabbit monoclonal antibody 19E10-3; combination C) VH: QSLEESGGDLVKPGSSLTLTCTASRFSFSGDYDMCWVRQAPGKGLEWIACIGAGDAITYYTNWARGRFTITYTSSTTMTLQLTSLTVADTAAYFCAAGADFAFKLWGPGTLVTVSS VL: DIVMTQTPASVEAAVGGTVTIKCQASQSIMSLLAWYQQKPGQPPKLLIYEASKLASGVPSRFSGSGSGTQFTLTISDLECADAATYYCQGYVESSGRHYRFWAFGGGTEVVVK | 3.94 |
| 8H8-1 (antibody, V domains shown, Expressed recombinantly in ExpiCHO-S cells, purified on protein A as IgG and detected with anti-rabbit IgG (Fc-specific); also called anti-AAV2 rabbit monoclonal antibody 8H8-1; combination A) VH: QSLVESGGGLVQPEGSLTLTCTASGFSFSNVYYMCWVRQAPGKGPDWIACIYINADSTYYPSWATGRFTISKTSSTTVTLQMTSLTAADTATYFCARVAAYYDVYFNLWGPGTVVTVSS VL: AVVMTQTASPVSAAVGGTVTINCQASQSISSSYLSWYQQKPGQPPKLLIYYASILTSGVPSRFKGSGDGTEYSLTISGVQCDDAATYYCLYGRYSGASIDTVFGGGTEVVVK | 1.46 |
| 33G5-3 (antibody, V domains shown, Expressed recombinantly in ExpiCHO-S cells, purified on protein A as IgG and detected with anti-rabbit IgG (Fc-specific); also called anti-AAV2 rabbit monoclonal antibody 33G5-3; Biotin-33G5-3) VH: QSVEESGGRLVTPGTPLTLTCTVSGIDLSSYAMSWVRQAPGKGLEWIGTINSDNYRYFGSWAKGRFTISKTSTTVDLKITSPTTEDTATYFCARQRGTSSGNAMDLWGPGTLVTVSS VL: DVVMTQTPASVSAALGGTVTIKCQASQSIGSYLNWYQQKPGQPPKLLIYAASTLAYGVSSRFRGSGSGTEFTLTISDLECADAATYYCQTYYISDSSSHVFGGGTEVVVK | 1.62 |

From patent US20260217796A1 (NANJING GENSCRIPT BIOTECH, published 2026)
